Molecular target: T1, pH 2.0-treated Fc (Fc region of human monoclonal IgG, acid-treated and neutralised) (human)
T1 construct: Dialysed at pH 2.0 for 12 h, then neutralised; also called acid-treated Fc region
Assay: SPR (Biacore T100), AF.ab9 immobilised on CM5, Fc region as analyte

B1: Polypeptide AF.ab9 (SEQ ID NO: 8) (peptide)
peptide: PNSGGGGSYDPETGTWPQEIRLILNW
notes: Chemically synthesised; 8-residue linker + 8-residue chignolin + 10-residue selected region
- binding response relative to that on the acid-treated (non-native) Fab region: ≤ 0.01 fold
